Laboratory results as given in publication PMC10210160, “Structural and biochemical elucidation of class I hybrid cluster protein natively extracted from a marine methanogenic archaeon” (Frontiers in Microbiology, 2023).

T1: MtHCP (hybrid cluster protein, class I) (Methanothermococcus thermolithotrophicus, UniProt A0AA82WPD8)
T1 construct: gene hcp; native anaerobic purification from the archaeon, untagged; five extra N-terminal residues versus WP_026182881.1 (mispredicted start Met)
T1 sequence (A0AA82WPD8 1-548): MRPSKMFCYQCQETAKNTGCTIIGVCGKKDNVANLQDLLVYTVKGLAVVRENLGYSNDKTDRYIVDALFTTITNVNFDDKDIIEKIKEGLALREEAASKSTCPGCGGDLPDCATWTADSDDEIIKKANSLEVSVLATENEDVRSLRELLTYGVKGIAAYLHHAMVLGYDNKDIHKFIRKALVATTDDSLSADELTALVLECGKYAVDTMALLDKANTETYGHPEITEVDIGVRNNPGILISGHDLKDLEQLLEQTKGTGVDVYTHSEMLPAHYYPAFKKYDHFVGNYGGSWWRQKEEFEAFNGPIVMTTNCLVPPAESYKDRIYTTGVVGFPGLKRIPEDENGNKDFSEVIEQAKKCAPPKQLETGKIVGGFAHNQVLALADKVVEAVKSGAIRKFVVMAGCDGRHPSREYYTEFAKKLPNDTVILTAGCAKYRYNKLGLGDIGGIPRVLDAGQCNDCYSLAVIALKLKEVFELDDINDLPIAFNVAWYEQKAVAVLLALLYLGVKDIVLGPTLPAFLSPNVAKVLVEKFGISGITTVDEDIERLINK

B1: MtHCP (hybrid cluster protein, class I) (Methanothermococcus thermolithotrophicus DSM 2095) (protein)
chain: T1 sequence (A0AA82WPD8 1-548)
notes: native anaerobic purification from the archaeon, untagged; five extra N-terminal residues versus WP_026182881.1 (mispredicted start Met)

What was measured:
[1] = target: T1, MtHCP (hybrid cluster protein, class I); test: X-ray crystal structure, […] Å; assay type: binding; conditions: as isolated, reduced state (MtHCPred)
[2] = substrate: NO; test: purified protein; assay type: biochemical, Methanothermococcus thermolithotrophicus; conditions: 10 mM methyl viologen, 75 μM dithionite, 10 μM EDTA, 50 mM HEPES pH 7.35, 50°C, anaerobic

| Molecule | X-ray crystal structure, 1.45 Å [1] | Km [2] [µM] | kcat [2] [s⁻¹] |
| --- | --- | --- | --- |
| [S]12[Fe]3[S]4[Fe]1[S]1[Fe]2[S]3[Fe]41 [[4Fe-4S] cluster] | harbouring a cubane [4Fe-4S] cluster and the hybrid cluster |  |  |
| B1 |  | 2200 ± 500 | 0.072 |
